Test results as given in patent publication US7576177B2, “Hsp peptides and analogs for modulation of immune responses via antigen presenting cells” (Andromeda Biotech Ltd., priority 2002, dated 2009).

Tests used:
[1] = system: BALB/c DO.11.10 bone marrow cells cultured for dendritic cells, cocultured with DO.11.10 T cells; assay: Education of mouse dendritic cells and stimulation of T-cells, cytokine content of supernatant; assay type: cell-based; conditions: 0.3 nM Ova peptide
Description: Whelan et al. (J. Immunol 164, 6453-6460, 2000) addressed the problem in mice by an experiment in which mouse bone marrow cells were grown for 6 days in culture with GM-CSF to give immature dendritic cells. These dendritic cells were then incubated overnight with LPS (known to drive cells to DC1) or with a nematode antigen. The reason for the choice of nematode antigen was that injection of this antigen in vivo gives rise to a Th2 response in animals. After this so-called “education” of the dendritic cells, they were washed and subsequently incubated with naive T cells in the presence of antigenic stimulus. The experiment was possible because of the use of transgenic mice in which all the T cells respond to the same peptide (OVA323-339) which absolves the system from any question of bias of the T cell response at the level of the T cells. Any bias should be a consequence of the “education” of the dendritic cells. After three days of incubation the cytokine responses produced by the T cells, were measured by ELISA. […] In contrast, nematode antigen incubation gave rise to more IL-4 (Th2) than did controls while the LPS incubation inhibited the IL4 response. Therefore, the nematode antigen was said to drive cells to DC2. A similar method was used for testing the compounds of the present invention: • 1. Bone marrow cells were extracted from the leg bones of DO.11.10 mice transgenic for the TcR. All cells from these mice respond to the OVA peptide ([…]). • 2. Bone marrow cells were plated at 10^6 cells/ml in 100 mm diameter tissue culture petri dishes in Iscove's medium supplemented with 10% FCS, […], 1 mM sodium pyruvate, penicillin/streptomycin (according to manufacturer's recommendations), non-essential amino acids, 50 μM β-mercaptoethanol and 10 ng/ml mGM-CSF. • 3. After 4 days, the medium was carefully removed and replaced with fresh medium • 4. After 6 days, the non-adherent cells were harvested and used as immature dendritic cells • 5. The immature dendritic cells are plated at 1×10^6 cells/ml, 1 ml/well in 24 well plates in the above medium with various reagents added at various concentrations and incubated overnight. This is the stage in which the dendritic cells are “educated” • 6. The next day the cells were harvested and washed 3 times then resuspended at 5×10^4 cells/ml in 1 ml of the above medium but without the addition of GM-CSF to be cocultured with T cells • 7. […] 5×10^5 T cells were cultured with the dendritic cells from step 6 in the presence of various concentrations of the OVA peptide (0, 0.3 nM, 3 nM and 30 nM). • 9. After 3 days PMA (50 ng/ml) and ionomycin (500 ng/ml) were added to further stimulate the cells. • 10. The next day the cell supernatants were collected and assayed for cytokine content (Interferon γ, IL4, IL-10 and IL-12).
The compound was tested for stimulation of DO.11.10 bone marrow cells according to the assay described above (Production and education of mouse dendritic cells and stimulation of T-cells).
BALB/c DO.11.10 bone marrow cells were cultured for dendritic cells and then stimulated with LPS 1 μg/ml, LPS 10 μg/ml, hsp60 3 μg/ml, hsp60 10 μg/ml, p277 5 μg/ml and p277 50 μg/ml. The cells were then transferred to wells with T cells from fresh BALB/c DO.11.10 mice and stimulated with OVA peptide at different concentrations (0, 0.3 nM, 3 nM, 30 nM). Supernatant was collected after 48 hours for assay. 30 μl was taken for IFN, 40 μl for IL4 and IL-10 and 50 μl for IL-12 assays. The results are presented in the following tables, as amount of cytokine (pg/ml), and in FIG. 1.

[2] = system: peripheral blood mononuclear cells cultured with GM-CSF and IL4 (dendritic cells); assay: Peripheral blood derived dendritic cells: secreted cytokines (IP-10, IL-8) and cell surface antigens (CD83, CD86); assay type: cell-based, human; conditions: overnight
Description: The effect of the compositions of the present invention on peripheral blood derived dendritic cells, was tested according to a protocol described by Re, F. and Strominger, J. L. 2001. Toll-like receptor 2 (Tlr2) and Tlr4 differentially activate human dendritic cells. (J Biol Chem 276: 37692-9). According to this method immature dendritic cells derived from human peripheral blood are used. The outcome after incubating the cells with tested molecules is different if the stimulation is through the Toll 4 receptor or the Toll 2 receptor. According to the authors, Toll 2 signaling by stimulation with zymosan is associated with a Th2 kind of response (exemplified by IL-8) and Toll 4 signaling, such as obtained by LPS stimulation (exemplified by IP-10), with a Th1 type of response. The compositions of the present invention were tested using a similar assay system in order to check which stimulation type they induce. […] The increase in CD86 expression after exposure of APCs to Hsps or Hsp derived peptides is important since CD86 (B7.2) is an essential component of the immunological synapse formed between T cells and APC. This synapse consists of CD80 and CD86 on the side of the APC and CD28 and CD40 on the side of the T cell. T cell recognition of peptide on APC without the concurrent expression of CD86 gives rise to anergy instead of a T cell response. Therefore in order to produce a response all components must be present.
The assay was based on the protocol described by Re, F. and Strominger, J. L. 2001. Toll-like receptor 2 (Tlr2) and Tlr4 differentially activate human dendritic cells. (J. Biol Chem 276: 37692-9).
Peripheral blood mononuclear cells were prepared from leucocytes from blood lots obtained from the blood bank. The cells were plated at 10^8 cells/10 ml/Petri dish in RPMI medium including 10% FCS and allowed to adhere at 37° C. for 2 hours. At the end of this time, the non-adherent cells were washed off the plates with PBS and the adherent cells resuspended in fresh medium as before. […]

[3] = system: peripheral blood monocytes; assay: Peripheral blood monocytes: IP-10 after direct stimulation or preincubation then LPS; assay type: cell-based, human; conditions: peripheral blood monocytes, no preincubation, FIG. 4
Description: Peripheral blood mononuclear cells were prepared from leucocytes of blood lots obtained from the blood bank. The cells were plated at a concentration of 4×10^6 cell/ml/well in 24 well tissue culture dishes in medium containing 10% fetal calf serum. The cells were allowed to adhere for 2 hours at 37° C. After this time, non-adherent cells were washed away and the adherent cells incubated in fresh medium containing 10% human AB serum for 6-8 days, changing the medium after 4 days. These culture conditions were reported to give rise to monocytes.
For stimulation the medium was replaced with medium without serum. For preincubation, the cells were exposed overnight to the tested compounds at various concentrations and then LPS was added. The supernatant was collected after a further overnight incubation and tested for various cytokines by ELISA assays.

[4] = dendritic cells educated with 3 μg/ml
[5] = dendritic cells educated with 10 μg/ml

B1: hsp60: heat shock protein 60, mitochondrial chaperone, used as stimulus (protein)
chain: MLRLPTVFRQMRPVSRVLAPHLTRAYAKDVKFGADARALMLQGVDLLADAVAVTMGPKGRTVIIEQGWGSPKVTKDGVTVAKSIDLKDKYKNIGAKLVQDVANNTNEEAGDGTTTATVLARSIAKEGFEKISKGANPVEIRRGVMLAVDAVIAELKKQSKPVTTPEEIAQVATISANGDKEIGNIISDAMKKVGRKGVITVKDGKTLNDELEIIEGMKFDRGYISPYFINTSKGQKCEFQDAYVLLSEKKISSIQSIVPALEIANAHRKPLVIIAEDVDGEALSTLVLNRLKVGLQVVAVKAPGFGDNRKNQLKDMAIATGGAVFGEEGLTLNLEDVQPHDLGKVGEVIVTKDDAMLLKGKGDKAQIEKRIQEIIEQLDVTTSEYEKEKLNERLAKLSDGVAVLKVGGTSDVEVNEKKDRVTDALNATRAAVEEGIVLGGGCALLRCIPALDSLTPANEDQKIGIEIIKRTLKIPAMTIAKNAGVEGSLIVEKIMQSSSEVGYDAMAGDFVNMVEKGIIDPTKVVRTALLDAAGVASLLTTAEVVVTEIPKEEKDPGMGAMGGMGGGMGGGMF
modifications: Homo sapien
notes: heat shock protein 60, mitochondrial chaperone, used as stimulus
- IFN secretion of T cells [1, 4]: 447.78 pg/mL
- IL-4 secretion of T cells [1, 4]: 35.96 pg/mL
- IL-10 secretion of T cells [1, 4]: 34.50 pg/mL
- IL-12 secretion of T cells [1, 4]: 95.00 pg/mL
- IFN secretion of T cells [1, 5]: 480.56 pg/mL
- IL-4 secretion of T cells [1, 5]: 24.29 pg/mL
- IL-10 secretion of T cells [1, 5]: 80.18 pg/mL
- IL-12 secretion of T cells [1, 5]: 126.25 pg/mL
- IP-10 ([2]; stimulus 10 ng/ml): 6 pg/mL
- IP-10 ([2]; stimulus 0.1 μg/ml): 1 pg/mL
- IP-10 ([2]; stimulus 1 μg/ml): 31 pg/mL
- IP-10 after direct stimulation [3]: did not give rise to IP-10
